# Source: the Immune Epitope Database (IEDB)
# What was measured:
# Assay in all cases: IEDB peptide-MHC binding, purified MHC/competitive/radioactivity; filed as Kd, often an IC50 or EC50 that approximates it; ≥ and ≤ were set here for values at or beyond the usual limits of such assays
# HLA-A*30:01 = biological target: HLA-A*30:01
# HLA-A*32:01 = biological target: HLA-A*32:01
# HLA-B*08:01 = biological target: HLA-B*08:01
# HLA-B*15:01 = biological target: HLA-B*15:01
# HLA-B*15:03 = biological target: HLA-B*15:03
# HLA-B*18:01 = biological target: HLA-B*18:01
# HLA-B*40:01 = biological target: HLA-B*40:01
# HLA-B*40:02 = biological target: HLA-B*40:02
# HLA-B*44:02 = biological target: HLA-B*44:02
# HLA-B*44:03 = biological target: HLA-B*44:03
# HLA-B*45:01 = biological target: HLA-B*45:01
# HLA-A*02:02 = details: source organism: Vaccinia virus WR
# HLA-A*02:03 = details: source organism: Vaccinia virus WR
# HLA-A*02:06 = details: source organism: Vaccinia virus WR
# [1] = source organism: Vaccinia virus WR
# [2] = source organism: SARS coronavirus Tor2
# [3] = source organism: Mammarenavirus whitewaterense
# [4] = source organism: Mammarenavirus choriomeningitidis
sequence,measurement,setting,value
ISESRFQSL,Kd,HLA-A*30:01; [1],5920 nM
same,Kd,HLA-A*32:01; [1],11100 nM
same,Kd,HLA-B*08:01; [1],39.6 nM
same,Kd,HLA-B*15:01; [1],2890 nM
same,Kd,HLA-B*15:03; [1],147 nM
KELSPRWYFY,Kd,HLA-B*18:01; [2],6750 nM
same,Kd,HLA-B*40:01; [2],8570 nM
same,Kd,HLA-B*40:02; [2],309 nM
same,Kd,HLA-B*44:02; [2],9.79 nM
same,Kd,HLA-B*44:03; [2],12.6 nM
same,Kd,HLA-B*45:01; [2],4230 nM
KMAVEVGSI,Kd,HLA-A*02:02,30.8 nM
same,Kd,HLA-A*02:03,2.78 nM
same,Kd,HLA-A*02:06,119 nM
same,Kd,HLA-B*15:03; [1],335 nM
LDIQKCGEL,Kd,HLA-B*18:01; [3],≥ 53200 nM
same,Kd,HLA-B*40:01; [3],≥ 46700 nM
same,Kd,HLA-B*40:02; [3],9660 nM
same,Kd,HLA-B*44:02; [3],≥ 77900 nM
same,Kd,HLA-B*44:03; [3],≥ 78100 nM
same,Kd,HLA-B*45:01; [3],≥ 56900 nM
LLKDRNELF,Kd,HLA-A*30:01; [1],108 nM
same,Kd,HLA-A*32:01; [1],3070 nM
same,Kd,HLA-B*08:01; [1],40.6 nM
same,Kd,HLA-B*15:01; [1],1.82 nM
same,Kd,HLA-B*15:03; [1],15.7 nM
LSINSSFYF,Kd,HLA-A*30:01; source organism: Variola virus,970 nM
same,Kd,HLA-A*32:01; source organism: Variola virus,2960 nM
same,Kd,HLA-B*08:01; source organism: Variola virus,3160 nM
same,Kd,HLA-B*15:01; source organism: Variola virus,1.02 nM
same,Kd,HLA-B*15:03; source organism: Variola virus,4.81 nM
METMFFIRF,Kd,HLA-B*15:03; [1],52.6 nM
MVKNNKIQK,Kd,HLA-A*30:01; [1],11.8 nM
same,Kd,HLA-A*32:01; [1],≥ 77800 nM
same,Kd,HLA-B*08:01; [1],17800 nM
same,Kd,HLA-B*15:01; [1],18300 nM
same,Kd,HLA-B*15:03; [1],9550 nM
NDSILSHNF,Kd,HLA-B*18:01; [4],423 nM
same,Kd,HLA-B*40:01; [4],≥ 76100 nM
same,Kd,HLA-B*40:02; [4],5930 nM
same,Kd,HLA-B*44:02; [4],182 nM
same,Kd,HLA-B*44:03; [4],11400 nM
same,Kd,HLA-B*45:01; [4],≥ 77700 nM
